Data as given in US20050069542A1 (Human Genome Sciences, published 2005).
Numbering of substitutions follows the chain as printed.

B1: GMBC619 (scFv)
scFv: EVQLVESGGGVVQPGRSLRLSCAASGFTFRSYGMHWVRQAPGKGLEWVAVITYDGSNKYYADSVKGRFTISRDNSKNTLYLQMNSLRADDTAVYYCARDGGGWYHPRLDYWGQGTMVTVSSGGGGSGGGGSGGGGSSELTQDPAVSVALGQTVRITCQGDSLRSYYASWYQQKPGQAPVLVIYGKNNRPSGIPDRFSGSSSGNTASLTITGAQAEDEADYYCNSRDSSGNHVVFGGGTKLTVLG
B2: GMBC621 (scFv)
scFv: EVQLVQSGGGVVQPGRSLRLSCAASGFTFSSYGMHWVRQAPGKGLEWVAVISYDGSNKYYADSVKGRFTISRDNSKNTLYLQMDSLRAEDTAVYFCAKRGLWTPIDYWGKGTLVTVSSGGGGSGGGGSGGGGSSELTQDPAVSVALGQTVRITCQGDSLRSYYASWYQQKPGQAPVLVIYGKNNRPSGIPDRFSGSNSGNTASLTITGAQAEDEADYYCNSRDSSGNHVVFGGGTKLTVLG
B3: GMBC604 (scFv)
scFv: EVQLVQSGAEVKKPGESLRISCKGSGYTFTNYWINWVRQVPGKGLEWMGMIDPTDSYAKYSPSFQGHVTISTDKSVSTAYLQWRSLQASDSAIYYCVRGYSYDLDYWGKGTLVTVSSGGGGSGGGGSGGGGSQSVLTQPASVSGSPGQSITISCTGTSSDVGGYNYVSWYQQHPGKAPKLMIYEGSKRPSGVSNRFSGSKSGNTASLTISGLQAEDEADYYCSSYTTRSTRVFGGGTKLTVLG
B4: GMBC638 (scFv)
scFv: QVQLVQSGGGLVKPGESLRLSCEASGFEFNYAWMSWVRQAPGKGLEWVGRSRSVASGGTTDYAAPLQDRFTISRDDSKNTLYLQVNSLKIEDTGVYFCKWEKSEYYGMDVWGRGTMVTVSSGGGGSGGGGSGGGGSQSVLTQPASVSGSPGQSITISCTGTSSDVGGYNYVSWYQQHPGKAPKLMIYEGSKRPSGVSNRFSGSKSGNTASLTISGLQAEDEADYYCSSYTTRSTRVFGGGTKLTVLG
B5: GMBC626 (scFv)
scFv: B4 scFv with Q1E, V54E, M116P, Q217R, R232K, R235Q
B6: GMBC659 (scFv)
scFv: B4 scFv with Q6E, V54E, M116L
B7: GMBC627 (scFv)
scFv: GVQLVQSGGEVKKPGASVRVSCKASRYIFSNYGFSWVRQAPGQGLEWMGSIRNDKGSTNYAQGFQDRLTMTTDTSTNTVFMELRSLSSDDTAVYYCASAPYYYGMGIWGKGTLVTVSSGGGGSGGGGSGGGGSQSVLTQPASVSGSSGQSITISCTGTSSDVGGYNYVSWYQQHPGKAPKLMIYEVGNRPSGVSNRFSGSKSGNTASLTISGLQAEDEADYYCSSYTTRSTRVFGGGTKLTVLG
B8: GMBC628 (scFv)
scFv: QVQLQQSGAEVKKPGASVRVSCKASGYTFTSYGFSWVRQAPGQRLEWMGWISAYKGNANYAEKFQGRVTMTTDTSTNTAYMELRSLRSDDTAVYYCARTRISVAGLDYYYYGLDVWGRGTLVTVSSGGGGSGGGGSGGGGSSELTQDPAVSVALGQTVRITCQGDSLRSYYTNWFQQKPGQAPLLVVYAKNNRPSGIPDRFSGSSSGNTASLTITGAQAEDEADYYCNSRDSSGNHVVFGGGTKLTVLG
B9: GMBC629 (scFv)
scFv: QVQLVESGGGLVKPGGSLRLSCAGSGFKFSDAWMNWVRQAPGKGLEWVGRIKSKGSGGTIEYAVPVKDRFIISRDDSKDTLYLQMNSLKTEDTALYYCTWDWDFYYGMNVWGQGTLVTVSSGGGGSGGGGSGGGGSSELTQDPAVSVALGQTVRITCQGDSLRSYYTNWFQQKPGQAPLLVVYAKNKRPSGIPDRFSGSSSGNTASLTITGAQAEDEADYYCHSRDSSGNHVLFGGGTKLTVLG
B10: GMBC685 (scFv)
scFv: QVQLVESGGVVVQPGGSLRLSCAASGFTFSDAWMNWVRQAPGKGLEWVGRIKSKGSGGTIDYAAPVKDRFTISRDDSKNTLYLQMNSLKTEDTALYYCTWDWDFYYGMNVWGKGTMVTVSSGGGGSGGGGSGGGGSSELTQDPAVSVALGQTVRITCQGDSLRSYYTNWFQQKPGQAPLLVVYAKNKRPSGIPDRFSGSSSGNTASLTITGAQAEDEADYYCHSRDSSGNHVLFGGGTKLTVLG
B11: GMBC729 (scFv)
scFv: B9 scFv with V5Q, V64A, N86D, S164N
B12: GMBC630 (scFv)
scFv: QVQLVESGGGLVQPGRSLRLPCAASGFTFSSYGMHWVRQAPGKGLEWVAVISYDGSNKYYADSVKGRFTISRDNSKNTLYLQMNSLRAEDTAVYYCAKATSLLNAFDIWGRGTMVTVSSGGGGSGGGGSGGGGSSELTQDPAVSVALGQTVRITCQGDSLRSYYASWYQQKPGQAPVLVIYGKNNRPSGIPDRFSGSSSGNTASLTITGAQAEDEADYYCNSRDSSGNHVVFGGGTKLTVLG
B13: GMBC665 (scFv)
scFv: EVQLVETGGGLVKPGGSLRLSCAASGFTFSDAWMNWVRQAPGKGLEWVGRIKSKGSGGTIDYAAPVKDRFTISRDDSKNTLYLQMNSLKTEDTALYYCTWDWDFYYGMNVWGQGTMVTVSSGGGGSGGGGSGGGGSSELTQDPAVSVALGQTVRITCQGDSLRSYYASWYQQKPGQAPVLVIYGKNNRPSGIPDRFSGSSSGNTASLTITGAQAEDEADYYCNSRDSSGNHVVFGGGTKLTVLG
B14: GMBC632 (scFv)
scFv: B13 scFv with E1Q, E6Q, T7S, A24G, T28K, D61E, T71I, N79D, G107D, S197F
B15: GMBC635 (scFv)
scFv: B13 scFv with T7S, F70Y, Q113K
B16: GMBC648 (scFv)
scFv: B13 scFv with E1Q, T7S, G55R, A144T
B17: GMBC657 (scFv)
scFv: QMQLMQSGGGLVKPGGSLRLSCAGSGFKFSDAWMNWVRQAPGKGLEWVGRIKSKGSGGTIEYAAPVKDRFIISRDDSKDTLYLQMNSLKTEDTALYYCTWDWDFYYGMNVWGQGTLVTVSSGGGGSGGGGSGGGGSSELTQDPAVSVALGQTVRITCQGDSLRSYYASWYQQKPGQAPVLVIYGKNNRPSGIPDRFSGSSSGNTASLTITGAQAEDEADYYCNSRDSSGNHVVFGGGTKLTVLG
B18: GMBC668 (scFv)
scFv: EVQLVESGGGLVKPGGSLRLSCAASGFTFSDAWMNWVRQAPGKGLEWVGRIKSKGSGGTTDYAAPVKGRFTISRDDSENTLYLQMNSLKTEDTAVYYCTWDHSYYYDMAVWGRGTLVTVSSGGGGSGGGGSGGGGSSELTQDPAVSVALGQTVRITCQGDSLRSYYASWYQQKPGQAPVLVIYGKNNRPSGIPDRFSGSSSGNTASLTITGAQAEDEADYYCNSRDSSGNHVVFGGGTKLTVLG
B19: GMBC682 (scFv)
scFv: B13 scFv with E1Q, T7S, L11V, T28K, Q113R, M116L
B20: GMBC639 (scFv)
scFv: GVQLVQSGAEVKTPGASVKVSCKASGYTFTNHYMHWVRQAPGQGIEWVGVINPSGDGSSYAQTFQGRVTMTRDTSTSTVYMELRSLRSDDTAVYYCARDLFYDFWSDYYRNDQYYYMDVWGKGTLVTVSSGGGGSGGGGSGGGGSSELTQDPAVSVALGQAVRITCQGDSLRSYYASWYQQKPGQAPVLVIYGKNNRPSGIPDRFSGSSSGNTASLTITGAQAEDEADYYCNSRDSSGNHVVFGGGTKLTVLG
B21: GMBC641 (scFv)
scFv: EVQLVESGGGVVRPGRSLRLSCAASGFSFSSYGMHWVRQAPGKGLEWVSAISGSGGSTYYADSVKGRFTISRDNSKNTLYLQMNSLRAEDTAVYFCAKGGDRSFRAFDFWGQGTMVTVSSGGGGSGGGGSGGGGSSELTQDPAVSVALGQTVRITCQGDSLRSYYASWYQQKPGQAPVLVIYGKNNRPSGIPDRFSGSSSGNTASLTITGAQAEDEADYYCNSRDSSGNHVVFGGGTKLTVLG

Biological target: T1, flag-tagged soluble TL3 (amino acids 105-251 of SEQ ID NO:234) (Homo sapiens (Human), UniProt O75888 105-250)
T1 construct: Heterologous flag-tagged control protein, immobilized in the ELISA; also called flagged tagged TL-3; not shown: Flag tag
T1 sequence: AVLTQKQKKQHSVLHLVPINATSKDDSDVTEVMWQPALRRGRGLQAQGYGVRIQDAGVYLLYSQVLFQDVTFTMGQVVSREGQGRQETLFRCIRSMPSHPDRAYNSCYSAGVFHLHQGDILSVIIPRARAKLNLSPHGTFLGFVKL
Assay: phage ELISA on immobilized flag-tagged soluble TL3
Description: The individual phage isolates in the panel of phage, each phage expressing a unique scFv that bound to flag-tagged GMAD, were tested to ensure specificity for GMAD using an ELISA assay. The scFvs were tested in an ELISA for their ability to bind a heterologous flag-tagged protein, in this case—immobilized soluble TL3 (amino acids 105-251 of SEQ ID NO:234, GenBank Accesion Number NP_{—}003799, also described in International Patent Application Publication Number WO97/33902 and WO2001/96528 which are herein incorporated by reference in their entireties).

| Binder | binding result |
| --- | --- |
| B1 | no binding |
| B2 | no binding |
| B3 | no binding |
| B4 | no binding |
| B5 | no binding |
| B6 | no binding |
| B7 | no binding |
| B8 | no binding |
| B9 | no binding |
| B10 | no binding |
| B11 | no binding |
| B12 | no binding |
| B13 | no binding |
| B14 | no binding |
| B15 | no binding |
| B16 | no binding |
| B17 | no binding |
| B18 | no binding |
| B19 | no binding |
| B20 | no binding |
| B21 | no binding |
